The record followed here is article PMC3743106 (Extremophiles : life under extreme conditions, 2013).

The target of data set [1] is Thermococcus kodakarensis replication factor C large subunit (Thermococcus kodakarensis) (UniProt Q5JHP1). Nature of the data set: SEC. In general terms: Size exclusion chromatography separates by hydrodynamic size, large species first.
The data set “SEC” deals with the molecule itself. In words: SEC.

Several values for one entry are separate records, joined by “and”; a condition that tells them apart may be missing. Equal values may be shown once.

Thermococcus kodakarensis replication factor C large subunit (Thermococcus kodakarensis), sequence (Q5JHP1 whole entry): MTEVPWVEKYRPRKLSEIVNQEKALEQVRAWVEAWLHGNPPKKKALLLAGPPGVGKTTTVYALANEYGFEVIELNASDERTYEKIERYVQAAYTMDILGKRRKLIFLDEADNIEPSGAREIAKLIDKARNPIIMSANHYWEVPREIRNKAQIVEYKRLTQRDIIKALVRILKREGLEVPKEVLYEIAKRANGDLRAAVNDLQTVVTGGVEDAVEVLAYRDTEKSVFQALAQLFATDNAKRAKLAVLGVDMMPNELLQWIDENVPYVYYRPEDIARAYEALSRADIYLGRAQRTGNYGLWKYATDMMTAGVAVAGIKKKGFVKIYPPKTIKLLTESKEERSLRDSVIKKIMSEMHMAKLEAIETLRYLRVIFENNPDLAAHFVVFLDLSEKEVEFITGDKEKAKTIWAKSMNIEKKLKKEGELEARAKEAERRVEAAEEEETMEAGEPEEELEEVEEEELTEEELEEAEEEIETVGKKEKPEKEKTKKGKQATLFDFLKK

For orientation: stoichiometry N means the number of molecules, sites or subunits per partner or assembly. With “Thermococcus kodakarensis replication factor C small subunit (natural protein)”, the stoichiometry N in data set [1] turned out to be 4.

B1: Thermococcus kodakarensis PCNA1 (proliferating cell nuclear antigen 1, encoded by TK0535) (natural protein, UniProt Q5JF32 1-249, looked up)
chain: MPFEVVFDGAKEFADLIATASNLIDEAAFKFTEEGISMRAMDPSRVVLIDLNLPESIFSKYEVEEPETIGINMDQFKKILKRGKAKDTLILRKGDENFLEITFEGTAKRTFRLPLIDVEELELELPELPFTAKVVLLGEVLKEGIKDASLVSDAIKFIAKENEFTMKAEGETNEVEIRLTLEDEGLLDLEVEEETKSAYGIRYLSDMVKGIGKADEVILRFGNEMPLQMEYMIRDEGRLTFLLAPRVEE
For the molecule B1, in “SEC”, the “stoichiometry N” value is 2 and 3.

B2: Thermococcus kodakarensis PCNA2 (proliferating cell nuclear antigen 2, encoded by TK0582) (natural protein, UniProt Q5JFD3 1-253, looked up)
chain: MTFEIVFDSAREFESLIATLEKFFDEAVFQVNMEGIQMRAIDPSRVVLVDLNLPEMLFSKYSVESEEAIAFDLKRFLKVLKLARSRDTLVLRKGGENFLEVGLLGDENTWFKLPLIDANTPEIEIPSLPWTVKAVVLAGALKRAVKAAKLVSDSIYFMATPEKLTFKAEGNDSEVRTVLTMEDPGLLDLEHKMTKAKSAYGVAYLEDILRSLADADEVIIRFGFDIPLLLKYMVRDAGEVSFLIAPRVEEGRS
With B2, the “stoichiometry N” value in “SEC” is 3 and 6.
